Laboratory results as given in paper PMC3248895.

Molecular target: polymerized nonmuscle actin (F-actin) (UniProt P60709)
Assay: co-sedimentation

Kd: 10.7 µM
Substance: GST-connecdenn 3 789–801 wild type (from UniProt Q8IV53 789-801) (peptide)
